Experiments:
Experiment in all cases: IEDB peptide-MHC binding, purified MHC/competitive/radioactivity; filed as Kd, often an IC50 or EC50 that approximates it; ≥ and ≤ were set here for values at or beyond the usual limits of such assays
HLA-A*31:01 = molecular target: HLA-A*31:01
HLA-A*68:01 = molecular target: HLA-A*68:01
HLA-A*03:01 = molecular target: HLA-A*03:01
HLA-A*33:01 = molecular target: HLA-A*33:01
HLA-A*11:01 = molecular target: HLA-A*11:01
[1] = source organism: Vaccinia virus WR
[2] = source organism: Mammarenavirus brazilense
[3] = source organism: Dengue virus 4 Philippines/H241/1956
[4] = source organism: Dengue virus 1 Brazil/97-11/1997
[5] = source organism: Dengue virus 3 Martinique/1243/1999
[6] = source organism: SARS coronavirus Tor2
[7] = source organism: Dengue virus 2 Jamaica/1409/1983
[8] = source organism: Dengue virus 4 Dominica/814669/1981
[9] = source organism: Mammarenavirus juninense
[10] = source organism: Lymphocytic choriomeningitis virus (strain Armstrong)
[11] = source organism: Dengue virus 2 Peru/IQT2913/1996

Sequence | Kd (HLA-A*31:01; [1]) [nM] | Kd (HLA-A*68:01; [1]) [nM] | Kd (HLA-A*03:01; [1]) [nM] | Kd (HLA-A*33:01; [1]) [nM] | Kd (HLA-A*11:01; [1]) [nM] | further results
IMDKEQLLK | 1130 | 1110 | 10.2 | 6380 | 22 | 
ITGNNIILSK | 2460 | 7.62 | 3.51 | 2000 | 0.713 | 
IVSLCPTKK | 1610 | 912 | 359 | 7690 | 54.1 | 
KAGQNIRLSH |  |  |  |  |  | Kd (HLA-A*31:01; [2]): 5260 nM; Kd (HLA-A*68:01; [2]): ≥ 70100 nM; Kd (HLA-A*03:01; [2]): 1680 nM; Kd (HLA-A*33:01; [2]): ≥ 70000 nM; Kd (HLA-A*11:01; [2]): 12800 nM
KATLTEGVYR |  |  |  |  |  | Kd (HLA-A*31:01; [3]): 76 nM
KIFSEVTPK |  |  |  |  |  | Kd (HLA-A*03:01; source organism: Homo sapiens): 10 nM
KKNGAIKVLR |  |  |  |  |  | Kd (HLA-A*31:01; [4]): ≥ 70000 nM
KLDDVEKEK | 4770 | ≥ 59900 | 404 | ≥ 77700 | 292 | 
KLVKSLVDK | ≥ 41300 | ≥ 77700 | 34.5 | ≥ 77700 | 73.4 | 
KNKAWMVHR |  |  |  |  |  | Kd (HLA-A*31:01; [5]): 1.18 nM
KQIANQFNK |  |  |  |  |  | Kd (HLA-A*31:01; [6]): 24.2 nM; Kd (HLA-A*68:01; [6]): 9990 nM; Kd (HLA-A*03:01; [6]): 108 nM; Kd (HLA-A*33:01; [6]): ≥ 77700 nM; Kd (HLA-A*11:01; [6]): 138 nM
KSIIIPFIAY | 1370 | 17600 | 968 | ≥ 31700 | 249 | 
KSINKVYGR | 1.04 | 15.4 | 368 | 3410 | 2.38 | 
LFHGGEPIK | ≥ 77900 | 5110 | 719 | ≥ 77700 | 766 | 
LFYTFAISY | ≥ 77900 | ≥ 43300 | ≥ 48400 | ≥ 77700 | ≥ 20100 | 
LSEYETMVDY | ≥ 70000 | ≥ 70200 | 5270 | ≥ 70000 | 16000 | 
LTVCYVLTGR |  |  |  |  |  | Kd (HLA-A*68:01; [7]): 6.43 nM
LTYQNKVVR |  |  |  |  |  | Kd (HLA-A*31:01; [7]): 11.3 nM; Kd (HLA-A*68:01; [7]): 46.1 nM
LVKSYSLIR | 18.4 | 816 | 15600 | 1690 | 1490 | 
MLFTSTNDK | 18400 | 26.2 | 5.47 | ≥ 77700 | 20 | 
MQGAVDINR |  |  |  |  |  | Kd (HLA-A*31:01; [6]): 412 nM; Kd (HLA-A*68:01; [6]): 344 nM; Kd (HLA-A*03:01; [6]): ≥ 23100 nM; Kd (HLA-A*33:01; [6]): ≥ 37400 nM; Kd (HLA-A*11:01; [6]): 631 nM
MSTYGWNIVK |  |  |  |  |  | Kd (HLA-A*68:01; [5]): 6.17 nM
MTLMKGASR |  |  |  |  |  | Kd (HLA-A*31:01; [8]): 30.5 nM; Kd (HLA-A*68:01; [8]): 52.3 nM; Kd (HLA-A*33:01; [8]): 11.6 nM

Sequence | Kd (HLA-A*31:01; [1]) [nM] | Kd (HLA-A*68:01; [1]) [nM] | Kd (HLA-A*03:01; [1]) [nM] | Kd (HLA-A*33:01; [1]) [nM] | Kd (HLA-A*11:01; [1]) [nM] | further results
MVGLLSNSPH |  |  |  |  |  | Kd (HLA-A*31:01; [9]): 2890 nM; Kd (HLA-A*68:01; [9]): 661 nM; Kd (HLA-A*03:01; [9]): ≥ 30000 nM; Kd (HLA-A*33:01; [9]): 4280 nM; Kd (HLA-A*11:01; [9]): ≥ 41400 nM
NACSANNSHH |  |  |  |  |  | Kd (HLA-A*31:01; [10]): ≥ 70000 nM; Kd (HLA-A*68:01; [10]): 4710 nM; Kd (HLA-A*03:01; [10]): ≥ 70000 nM; Kd (HLA-A*33:01; [10]): ≥ 70000 nM; Kd (HLA-A*11:01; [10]): ≥ 69700 nM
NKKPRLCTR |  |  |  |  |  | Kd (HLA-A*33:01; [5]): 3910 nM
NMVSDTIMKR | 307 | 92 | 4180 | 827 | 120 | 
NSKYSYELY | ≥ 51100 | 10.2 | ≥ 33000 | ≥ 46700 | 10400 | 
NSSAVVDNK | ≥ 30600 | 44.1 | 8230 | ≥ 77700 | 195 | 
NTNLIKCSDH |  |  |  |  |  | Kd (HLA-A*31:01; [2]): ≥ 37500 nM; Kd (HLA-A*33:01; [2]): ≥ 60300 nM
NVFKAMETFK | 63 | 1.32 | 27.2 | 234 | 13.7 | 
PLFDFVNEK | 1220 | 222 | 1940 | 5520 | 413 | 
PLHILASNKK | 7700 | ≥ 21900 | 1480 | ≥ 70000 | 3420 | 
PMVIENGILK | ≥ 24100 | 292 | 10200 | ≥ 70000 | 216 | 
PVLKAMHDK | ≥ 67400 | 2520 | 645 | ≥ 77700 | 879 | 
QMWTLMYFHR |  |  |  |  |  | Kd (HLA-A*31:01; [7]): 1.86 nM; Kd (HLA-A*33:01; [7]): 35.3 nM
QVYFESFVR |  |  |  |  |  | Kd (HLA-A*11:01; [10]): 54.8 nM
RNKKPRLCTR |  |  |  |  |  | Kd (HLA-A*31:01; [5]): 92.6 nM
RVPSHLAHR |  |  |  |  |  | Kd (HLA-A*31:01; [5]): 0.845 nM
RVYADPMALK |  |  |  |  |  | Kd (HLA-A*68:01; [3]): 16.1 nM; Kd (HLA-A*03:01; [3]): 6.98 nM; Kd (HLA-A*11:01; [3]): 90.3 nM
SLRETACLGK |  |  |  |  |  | Kd (HLA-A*03:01; [4]): 8.06 nM
TIIGRRLQR |  |  |  |  |  | Kd (HLA-A*68:01; [3]): 617 nM; Kd (HLA-A*33:01; [3]): 416 nM
TMPLVMAWR |  |  |  |  |  | Kd (HLA-A*31:01; [3]): 8.48 nM; Kd (HLA-A*33:01; [3]): 6.43 nM
TVMAFHLTTR |  |  |  |  |  | Kd (HLA-A*31:01; [11]): 1.57 nM; Kd (HLA-A*68:01; [11]): 12.2 nM; Kd (HLA-A*33:01; [11]): 8.12 nM; Kd (HLA-A*11:01; [11]): 108 nM
VLAFITFLR |  |  |  |  |  | Kd (HLA-A*31:01; [3]): 4.41 nM; Kd (HLA-A*68:01; [3]): 8.39 nM; Kd (HLA-A*03:01; [3]): 267 nM; Kd (HLA-A*33:01; [3]): 70.4 nM
YFWQKKKQR |  |  |  |  |  | Kd (HLA-A*31:01; [4]): 2220 nM; Kd (HLA-A*33:01; [4]): 98.2 nM

— the Immune Epitope Database (IEDB)
